Laboratory results from US20180155451A1 (published 2018).

T1: FcγRIIb extracellular domain with C-terminal His tag (human, UniProt P31994 43-217)
T1 construct: extracellular domain; also called FcgRIIb; 2b; not shown: His tag at the C terminus
T1 sequence (looked up): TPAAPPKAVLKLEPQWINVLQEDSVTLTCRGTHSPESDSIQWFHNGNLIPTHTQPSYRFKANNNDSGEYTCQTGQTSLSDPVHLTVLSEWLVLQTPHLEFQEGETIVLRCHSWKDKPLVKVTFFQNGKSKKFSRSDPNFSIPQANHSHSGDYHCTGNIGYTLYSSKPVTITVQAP

B1: GpH7-A5/GpH7-B3 variant S239_07I/GpL16-k0 (heterodimerized antibody, He Ab) (antibody, human IgG1, kappa)
heavy 1: not shown
heavy 2: not shown
light: DIVMTQSPLSLPVTPGEPASISCQASESLVHSNRNTYLHWYLQKPGQSPQLLIYKVSNRFSGVPDRFSGSGSGTDFTLKISRVEAEDVGVYYCSQNTHVPPTFGQGTKVEIERTVAAPSVFIFPPSDEQLKSGTASVVCLLNNFYPREAKVQWKVDNALQSGNSQESVTEQDSKDSTYSLSSTLTLSKADYEKHKVYACEVTHQGLSSPVTKSFNRGEC
notes: Anti-glypican-3 IgG1; the alteration is in the GpH7-B3 chain only; also called S239I
B2: GpH7-B3 variant (S337_07I)/GpL16-k0 (antibody, human IgG1, kappa)
heavy: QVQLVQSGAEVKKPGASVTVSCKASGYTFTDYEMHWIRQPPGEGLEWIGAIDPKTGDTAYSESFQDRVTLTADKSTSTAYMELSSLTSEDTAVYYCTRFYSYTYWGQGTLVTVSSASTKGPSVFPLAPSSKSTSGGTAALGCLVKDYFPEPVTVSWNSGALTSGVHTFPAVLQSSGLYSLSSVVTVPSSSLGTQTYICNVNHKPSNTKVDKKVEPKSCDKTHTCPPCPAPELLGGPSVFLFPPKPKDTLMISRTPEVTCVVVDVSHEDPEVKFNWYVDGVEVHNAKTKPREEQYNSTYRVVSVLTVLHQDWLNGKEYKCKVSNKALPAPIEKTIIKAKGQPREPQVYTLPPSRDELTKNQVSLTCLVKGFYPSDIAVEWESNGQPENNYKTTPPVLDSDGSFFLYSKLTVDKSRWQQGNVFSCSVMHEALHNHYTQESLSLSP
light: B1 light
notes: Homodimerized; both H chains altered; also called Ho Ab S337_07I
B3: GpH7-A5/GpH7-B3 variant P238_14T/GpL16-k0 (heterodimerized antibody, He Ab) (antibody, human IgG1, kappa)
heavy 1: not shown
heavy 2: not shown
light: B1 light
notes: Anti-glypican-3 IgG1; the alteration is in the GpH7-B3 chain only; also called P238T
B4: GpH7-B3 variant (H268_18N)/GpL16-k0 (antibody, human IgG1, kappa)
heavy: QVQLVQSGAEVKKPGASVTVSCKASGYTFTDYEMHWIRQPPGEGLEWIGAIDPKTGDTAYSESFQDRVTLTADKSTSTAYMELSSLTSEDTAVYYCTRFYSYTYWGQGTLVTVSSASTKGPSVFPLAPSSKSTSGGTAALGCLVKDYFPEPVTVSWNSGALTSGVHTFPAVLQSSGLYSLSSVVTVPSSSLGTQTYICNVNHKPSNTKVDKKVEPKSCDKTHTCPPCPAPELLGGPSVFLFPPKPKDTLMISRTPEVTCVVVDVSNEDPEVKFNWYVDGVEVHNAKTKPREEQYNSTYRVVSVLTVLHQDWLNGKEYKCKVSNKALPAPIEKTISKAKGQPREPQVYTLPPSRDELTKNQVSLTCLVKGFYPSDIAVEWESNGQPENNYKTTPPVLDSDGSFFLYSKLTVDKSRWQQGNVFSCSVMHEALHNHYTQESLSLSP
light: B1 light
notes: Homodimerized; both H chains altered; also called Ho Ab H268_18N
B5: GpH7-A5/GpH7-B3 variant S239_06M/GpL16-k0 (heterodimerized antibody, He Ab) (antibody, human IgG1, kappa)
heavy 1: not shown
heavy 2: not shown
light: B1 light
notes: Anti-glypican-3 IgG1; the alteration is in the GpH7-B3 chain only; also called S239M
B6: GpH7-B3 variant (A330_19Q)/GpL16-k0 (antibody, human IgG1, kappa)
heavy: not shown
light: B1 light
notes: Homodimerized; both H chains altered; also called Ho Ab A330_19Q
B7: GpH7-B3 variant (I336_13S)/GpL16-k0 (antibody, human IgG1, kappa)
heavy: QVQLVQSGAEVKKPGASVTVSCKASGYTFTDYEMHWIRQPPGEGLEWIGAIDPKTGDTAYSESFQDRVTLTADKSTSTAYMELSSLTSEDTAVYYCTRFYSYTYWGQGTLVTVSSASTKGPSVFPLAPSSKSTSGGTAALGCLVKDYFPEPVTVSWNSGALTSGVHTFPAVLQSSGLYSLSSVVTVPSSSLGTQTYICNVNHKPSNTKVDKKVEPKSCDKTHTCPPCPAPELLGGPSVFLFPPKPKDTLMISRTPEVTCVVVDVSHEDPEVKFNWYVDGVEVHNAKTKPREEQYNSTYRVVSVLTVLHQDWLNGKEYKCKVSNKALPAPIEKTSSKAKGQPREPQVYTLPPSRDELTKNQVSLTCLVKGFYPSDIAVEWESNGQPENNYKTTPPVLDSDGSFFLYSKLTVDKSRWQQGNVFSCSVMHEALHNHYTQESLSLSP
light: B1 light
notes: Homodimerized; both H chains altered; also called Ho Ab I336_13S
B8: GpH7-B3 variant (S337_09D)/GpL16-k0 (antibody, human IgG1, kappa)
heavy: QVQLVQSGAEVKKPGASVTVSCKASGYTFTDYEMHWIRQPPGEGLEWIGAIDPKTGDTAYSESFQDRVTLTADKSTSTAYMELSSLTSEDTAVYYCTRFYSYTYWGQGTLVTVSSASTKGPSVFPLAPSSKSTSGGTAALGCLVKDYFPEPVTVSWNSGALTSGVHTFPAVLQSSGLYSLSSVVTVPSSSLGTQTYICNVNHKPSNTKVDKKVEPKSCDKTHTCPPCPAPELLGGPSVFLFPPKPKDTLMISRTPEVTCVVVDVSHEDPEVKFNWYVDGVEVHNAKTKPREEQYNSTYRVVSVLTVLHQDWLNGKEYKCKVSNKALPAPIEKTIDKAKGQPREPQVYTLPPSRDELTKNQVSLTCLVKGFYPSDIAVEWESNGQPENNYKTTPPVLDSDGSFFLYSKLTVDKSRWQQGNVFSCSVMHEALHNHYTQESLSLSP
light: B1 light
notes: Homodimerized; both H chains altered; also called Ho Ab S337_09D
B9: GpH7-B3 variant (H268_13S)/GpL16-k0 (antibody, human IgG1, kappa)
heavy: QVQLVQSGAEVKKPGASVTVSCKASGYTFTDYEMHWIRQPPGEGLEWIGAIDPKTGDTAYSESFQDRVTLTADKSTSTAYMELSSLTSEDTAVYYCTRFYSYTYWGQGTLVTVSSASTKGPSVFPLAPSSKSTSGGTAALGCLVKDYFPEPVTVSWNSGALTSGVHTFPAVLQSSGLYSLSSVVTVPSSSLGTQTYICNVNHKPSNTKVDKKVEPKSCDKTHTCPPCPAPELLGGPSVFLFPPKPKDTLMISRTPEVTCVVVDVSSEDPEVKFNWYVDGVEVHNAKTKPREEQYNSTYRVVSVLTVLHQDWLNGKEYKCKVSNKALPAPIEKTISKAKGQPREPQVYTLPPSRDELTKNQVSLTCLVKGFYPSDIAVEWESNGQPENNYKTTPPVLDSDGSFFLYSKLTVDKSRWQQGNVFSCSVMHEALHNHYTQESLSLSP
light: B1 light
notes: Homodimerized; both H chains altered; also called Ho Ab H268_13S
B10: GpH7-B3 variant (I336_08L)/GpL16-k0 (antibody, human IgG1, kappa)
heavy: not shown
light: B1 light
notes: Homodimerized; both H chains altered; also called Ho Ab I336_08L
B11: GpH7-B3 variant (S337_08L)/GpL16-k0 (antibody, human IgG1, kappa)
heavy: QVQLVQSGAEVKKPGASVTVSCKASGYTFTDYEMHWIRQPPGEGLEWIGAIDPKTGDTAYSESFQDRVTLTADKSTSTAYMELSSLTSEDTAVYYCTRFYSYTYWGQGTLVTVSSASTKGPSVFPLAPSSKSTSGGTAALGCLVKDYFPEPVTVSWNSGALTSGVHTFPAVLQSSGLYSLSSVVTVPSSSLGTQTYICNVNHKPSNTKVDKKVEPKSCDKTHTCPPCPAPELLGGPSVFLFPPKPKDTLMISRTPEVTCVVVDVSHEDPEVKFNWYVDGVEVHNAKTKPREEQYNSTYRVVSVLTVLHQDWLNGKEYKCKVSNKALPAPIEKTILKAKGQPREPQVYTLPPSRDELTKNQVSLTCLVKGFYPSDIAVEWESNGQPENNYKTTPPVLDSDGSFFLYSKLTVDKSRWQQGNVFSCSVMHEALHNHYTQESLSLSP
light: B1 light
notes: Homodimerized; both H chains altered; also called Ho Ab S337_08L
B12: GpH7-A5/GpH7-B3 variant S267_03V/GpL16-k0 (heterodimerized antibody, He Ab) (antibody, human IgG1, kappa)
heavy 1: not shown
heavy 2: not shown
light: B1 light
notes: Anti-glypican-3 IgG1; the alteration is in the GpH7-B3 chain only; also called S267V
B13: GpH7-A5/GpH7-B3 variant S239_05P/GpL16-k0 (heterodimerized antibody, He Ab) (antibody, human IgG1, kappa)
heavy 1: not shown
heavy 2: not shown
light: B1 light
notes: Anti-glypican-3 IgG1; the alteration is in the GpH7-B3 chain only; also called S239P
B14: GpH7-A5/GpH7-B3 variant P238_20W/GpL16-k0 (heterodimerized antibody, He Ab) (antibody, human IgG1, kappa)
heavy 1: not shown
heavy 2: not shown
light: B1 light
notes: Anti-glypican-3 IgG1; the alteration is in the GpH7-B3 chain only; also called P238W
B15: GpH7-B3 variant (S337_10E)/GpL16-k0 (antibody, human IgG1, kappa)
heavy: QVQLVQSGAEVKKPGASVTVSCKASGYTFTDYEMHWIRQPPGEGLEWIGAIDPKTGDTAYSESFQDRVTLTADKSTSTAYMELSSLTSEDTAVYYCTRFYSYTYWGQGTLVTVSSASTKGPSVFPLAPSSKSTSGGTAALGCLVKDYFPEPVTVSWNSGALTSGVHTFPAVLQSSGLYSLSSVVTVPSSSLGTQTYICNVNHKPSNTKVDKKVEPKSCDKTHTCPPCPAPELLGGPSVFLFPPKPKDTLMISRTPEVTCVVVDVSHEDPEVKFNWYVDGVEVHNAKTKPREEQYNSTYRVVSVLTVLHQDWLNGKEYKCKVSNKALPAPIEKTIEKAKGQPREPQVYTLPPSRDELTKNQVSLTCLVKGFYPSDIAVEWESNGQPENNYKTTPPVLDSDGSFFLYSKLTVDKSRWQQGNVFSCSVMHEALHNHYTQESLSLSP
light: B1 light
notes: Homodimerized; both H chains altered; also called Ho Ab S337_10E
B16: GpH7-B3 variant (I336_14T)/GpL16-k0 (antibody, human IgG1, kappa)
heavy: not shown
light: B1 light
notes: Homodimerized; both H chains altered; also called Ho Ab I336_14T
B17: GpH7-A5/GpH7-B3 variant S267_08L/GpL16-k0 (heterodimerized antibody, He Ab) (antibody, human IgG1, kappa)
heavy 1: not shown
heavy 2: not shown
light: B1 light
notes: Anti-glypican-3 IgG1; the alteration is in the GpH7-B3 chain only; also called S267L
B18: GpH7-B3 variant (A330_20W)/GpL16-k0 (antibody, human IgG1, kappa)
heavy: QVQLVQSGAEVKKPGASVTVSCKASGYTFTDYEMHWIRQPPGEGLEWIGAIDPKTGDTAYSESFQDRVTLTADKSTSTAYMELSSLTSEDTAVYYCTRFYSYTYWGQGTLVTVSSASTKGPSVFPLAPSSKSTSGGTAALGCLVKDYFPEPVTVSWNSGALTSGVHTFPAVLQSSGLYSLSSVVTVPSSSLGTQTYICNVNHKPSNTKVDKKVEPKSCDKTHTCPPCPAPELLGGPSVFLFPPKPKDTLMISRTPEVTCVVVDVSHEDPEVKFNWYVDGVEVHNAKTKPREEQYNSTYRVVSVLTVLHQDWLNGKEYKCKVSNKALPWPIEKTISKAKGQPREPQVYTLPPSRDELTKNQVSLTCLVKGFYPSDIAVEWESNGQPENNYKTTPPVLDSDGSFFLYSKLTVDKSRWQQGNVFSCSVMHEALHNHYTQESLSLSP
light: B1 light
notes: Homodimerized; both H chains altered; also called Ho Ab A330_20W
B19: GpH7-B3 variant (I336_12R)/GpL16-k0 (antibody, human IgG1, kappa)
heavy: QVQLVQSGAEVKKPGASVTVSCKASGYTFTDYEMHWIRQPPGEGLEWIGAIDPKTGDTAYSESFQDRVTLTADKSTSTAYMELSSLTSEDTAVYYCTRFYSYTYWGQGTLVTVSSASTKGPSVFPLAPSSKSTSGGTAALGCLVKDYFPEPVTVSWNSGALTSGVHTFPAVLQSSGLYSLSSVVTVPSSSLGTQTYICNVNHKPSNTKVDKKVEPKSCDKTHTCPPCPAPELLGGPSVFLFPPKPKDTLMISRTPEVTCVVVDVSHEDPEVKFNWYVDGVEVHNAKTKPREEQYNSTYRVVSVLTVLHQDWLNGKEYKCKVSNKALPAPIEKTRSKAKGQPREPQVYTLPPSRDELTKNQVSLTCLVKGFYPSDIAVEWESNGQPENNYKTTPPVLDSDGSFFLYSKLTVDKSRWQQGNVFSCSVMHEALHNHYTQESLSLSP
light: B1 light
notes: Homodimerized; both H chains altered; also called Ho Ab I336_12R
B20: GpH7-A5/GpH7-B3 variant V266_06M/GpL16-k0 (heterodimerized antibody, He Ab) (antibody, human IgG1, kappa)
heavy 1: not shown
heavy 2: not shown
light: B1 light
notes: Anti-glypican-3 IgG1; the alteration is in the GpH7-B3 chain only; also called V266M
B21: GpH7-B3 variant (S337_15Y)/GpL16-k0 (antibody, human IgG1, kappa)
heavy: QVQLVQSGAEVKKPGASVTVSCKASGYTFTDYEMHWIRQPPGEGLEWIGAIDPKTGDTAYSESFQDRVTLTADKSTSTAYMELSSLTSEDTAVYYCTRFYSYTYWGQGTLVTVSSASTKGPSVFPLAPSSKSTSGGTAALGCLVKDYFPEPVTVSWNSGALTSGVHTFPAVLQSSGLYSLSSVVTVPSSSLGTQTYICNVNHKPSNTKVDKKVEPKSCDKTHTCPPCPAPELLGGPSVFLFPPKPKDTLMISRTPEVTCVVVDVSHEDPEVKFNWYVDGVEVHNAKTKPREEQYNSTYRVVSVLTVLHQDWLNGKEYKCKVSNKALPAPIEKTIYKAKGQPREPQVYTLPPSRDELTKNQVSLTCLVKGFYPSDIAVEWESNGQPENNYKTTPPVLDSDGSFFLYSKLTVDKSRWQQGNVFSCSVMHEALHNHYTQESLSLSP
light: B1 light
notes: Homodimerized; both H chains altered; also called Ho Ab S337_15Y
B22: GpH7-A5/GpH7-B3 variant S239_01G/GpL16-k0 (heterodimerized antibody, He Ab) (antibody, human IgG1, kappa)
heavy 1: not shown
heavy 2: not shown
light: B1 light
notes: Anti-glypican-3 IgG1; also called S239G
B23: GpH7-A5/GpH7-B3 variant S267_07I/GpL16-k0 (heterodimerized antibody, He Ab) (antibody, human IgG1, kappa)
heavy 1: not shown
heavy 2: not shown
light: B1 light
notes: Anti-glypican-3 IgG1; the alteration is in the GpH7-B3 chain only; also called S267I
B24: GpH7-A5/GpH7-B3 variant P238_15Y/GpL16-k0 (heterodimerized antibody, He Ab) (antibody, human IgG1, kappa)
heavy 1: not shown
heavy 2: not shown
light: B1 light
notes: Anti-glypican-3 IgG1; the alteration is in the GpH7-B3 chain only; also called P238Y

Assays:
[1] = molecular target: T2, FcγRIIIa extracellular domain with C-terminal His tag (human, UniProt P08637 17-208); assay: SPR (Biacore), captured antibody, FcγR as analyte; relative to GpH7-A5/GpH7-B3/GpL16-k0 = 100
T2 construct: extracellular domain; also called FcgRIIIa; 3a; not shown: His tag at the C terminus
T2 sequence (P08637 17-208): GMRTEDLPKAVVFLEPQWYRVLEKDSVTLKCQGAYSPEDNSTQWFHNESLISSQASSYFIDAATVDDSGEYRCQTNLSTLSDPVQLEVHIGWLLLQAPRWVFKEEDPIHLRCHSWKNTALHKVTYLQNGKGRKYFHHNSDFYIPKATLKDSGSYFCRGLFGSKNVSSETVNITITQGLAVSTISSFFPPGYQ
Protocol: (§1) Analysis of interaction between objective antibody and the FcγR was carried out using Biacore T100 (GE Healthcare). HBS-EP+ (GE Healthcare) was used as the running buffer, and the measurement temperature was set to 25° C. Chips produced by immobilizing the antigen peptide by the amine coupling method to a Series S Sencor Chip CM5 (GE Healthcare), or alternatively, chips produced by allowing preliminarily biotinylated antigen peptides to interact with and immobilize onto a Series S Sensor Chip SA (certified) (GE Healthcare) were used. Antibodies of interest were captured onto an antigen peptide-immobilized chip, and allowed to interact to each FcγR diluted with running buffer. To regenerate and repeatedly use the chip, the antibodies captured on the chip were washed off by reacting 10 mM glycine-HCl, pH 1.5.
(§2) The FcγR-binding activity of each antibody was assessed primarily using as an indicator the FcγR-binding activity and dissociation constant for FcγR.

[2] = molecular target: T1, FcγRIIb extracellular domain with …; assay: as above
Protocol: as §1, §2

[3] = molecular target: T3, FcγRIa extracellular domain with C-terminal His tag (human, UniProt P12314 16-292); assay: SPR (Biacore), captured antibody, FcγRIa analyte; relative to GpH7-B3/GpL16-k0 = 100
T3 construct: extracellular domain; Expressed in FreeStyle293 cells; used as analyte in Biacore; also called FcgRI; 1a; not shown: His tag at the C terminus
T3 sequence (P12314 16-292): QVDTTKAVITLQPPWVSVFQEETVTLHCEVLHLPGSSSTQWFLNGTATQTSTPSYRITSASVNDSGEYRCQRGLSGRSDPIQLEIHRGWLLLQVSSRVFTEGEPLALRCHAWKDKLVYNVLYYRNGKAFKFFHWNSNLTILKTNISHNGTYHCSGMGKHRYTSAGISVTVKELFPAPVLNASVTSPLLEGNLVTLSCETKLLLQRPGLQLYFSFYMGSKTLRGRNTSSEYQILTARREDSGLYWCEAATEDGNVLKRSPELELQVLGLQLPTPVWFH

Binder | He/Con_3a (IIIa binding) [1] | He/Con_2b (IIb binding) [2] | Ho/Con_1a [3]
B1 | 79.3 % of HeCon Ab | 107 % of HeCon Ab | 
B2 |  |  | 105 % of control
B3 | 28 % of HeCon Ab | 50.7 % of HeCon Ab | 
B4 |  |  | 108 % of control
B5 | 78.2 % of HeCon Ab | 101 % of HeCon Ab | 
B6 |  |  | 106 % of control
B7 |  |  | 110 % of control
B8 |  |  | 106 % of control
B9 |  |  | 110 % of control
B10 |  |  | 109 % of control
B11 |  |  | 105 % of control
B12 | 30.8 % of HeCon Ab | 192 % of HeCon Ab | 
B13 | 14.9 % of HeCon Ab | 102 % of HeCon Ab | 
B14 | 49.7 % of HeCon Ab | 123 % of HeCon Ab | 
B15 |  |  | 104 % of control
B16 |  |  | 111 % of control
B17 | 19.5 % of HeCon Ab | 109 % of HeCon Ab | 
B18 |  |  | 108 % of control
B19 |  |  | 109 % of control
B20 | 85.8 % of HeCon Ab | 251 % of HeCon Ab | 
B21 |  |  | 104 % of control
B22 | 76.2 % of HeCon Ab | 144 % of HeCon Ab | 
B23 | 25.2 % of HeCon Ab | 192 % of HeCon Ab | 
B24 | 64.5 % of HeCon Ab | 218 % of HeCon Ab | 
